Reference: PMC2788865 (The Journal of Biological Chemistry, 2009)

Biological target: Lys^75-FL-calmodulin (FL-CaM) (human, UniProt P0DP23 1-149, 5-(4,6-dichlorotriazinyl)aminofluorescein (FL) on Lys75)
Assay: fluorescence polarisation

- binding result: binds
B1: Ca^2+/calmodulin-dependent protein kinase IV (CaMKIV) (enzyme)
chain: MLKVTVPSCPSSPCSSVTSSTENLVPDYWIDGSKRDPLSDFFEVESELGRGATSIVYRCKQKGTQKPYALKVLKKTVDKKIVRTEIGVLLRLSHPNIIKLKEIFETPTEISLVLELVTGGELFDRIVEKGYYSERDAADAVKQILEAVAYLHENGIVHRDLKPENLLYATPAPDAPLKIADFGLSKIVEHQVLMKTVCGTPGYCAPEILRGCAYGPEVDMWSVGIITYILLCGFEPFYDERGDQFMFRRILNCEYYFISPWWDEVSLNAKDLVKKLIVLDPKKRLTTFQALQHPWVTGKAANFVHMDTAQKKLQEFNARRKLKAAVKAVVASSRLGSASSSHTNIQESNKASSEAQPAQDGKDKTDPLENKMQAGDHEAAKAAADETMKLQSEEVEEEEGVKEEEEEEEEEEETSRMVPQEPEDRLETDDQEMKRNSEETLKSVEEEMDPKAEEEAAAVGLGVPPQQDAILPEY
